Source: publication PMC11104707

B1: N-terminal half of ubiquitin-fused talin head domain (N-Ub-THD), wild type [not stated] / integrin β3 transmembrane domain-tail fused to the C-terminal half of ubiquitin (C-Ub) [not stated] (parent)
chain 1: MVALSLKISIGNVVKTMQFEPSTMVYDACRMIRERIPEALAGPPNDFGLFLSDDDPKKGIWLEAGKALDYYMLRNGDTMEYRKKQRPLKIRMLDGTVKTIMVDDSKTVTDMLMTICARIGITNHDEYSLVRELMEEKKDEGTGTLRKDKTLLRDEKKMEKLKQKLHTDDELNWLDHGRTLREQGVEEHETLLLRRKFFYSDQNVDSRDPVQLNLLYVQARDDILNGSHPVSFDKACEFAGFQCQIQFGPHNEQKHKAGFLDLKDFLPKEYVKQKGERKIFQAHKNCGQMSEIEAKVRYVKLARSLKTYGVSFFLVKEKMKGKNKLVPRLLGITKECVMRVDEKTKEVIQEWSLTNIKRWAASPKSFTLDFGDYQDGYYSVQTTEGEQIAQLIAGYIDIILKKKKSKDHFGLEGDEESTMLEDSVSPKKSTVLQ
chain 2: ILVVLLSVMGAILLIGLAALLIWKLLITIHDRKEFAKFEEERARAKWDTANNPLYKEATSTFTNITYRGT

Variants of: B1
Experiment: mammalian two-hybrid (split-ubiquitin) assay, GFP expression read by flow cytometry
Settings: with integrin β3 transmembrane domain-tail fused to the C-terminal half of ubiquitin (C-Ub); CHO cells stably incorporated with 5xGAL4-UAS and the integrin β3 TMD-tail construct; Empty control 0.23 %, N-Ub-THD(ΔF3) 1.96 %; parent: 7.9

response (% GFP-expressing cells) | Variant
2.28 | chain 1 MVALSLKISIGNVVKTMQFEPSTMVYDACRMIRERIPEALAGPPNDFGLFLSDDDPKKGIWLEAGKALDYYMLRNGDTMEYRKKQRPLKIRMLDGTVKTIMVDDSKTVTDMLMTICARIGITNHDEYSLVRELMEEKKDEGTGTLRKDKTLLRDEKKMEKLKQKLHTDDELNWLDHGRTLREQGVEEHETLLLRRKFFYSDQNVDSRDPVQLNLLYVQARDDILNGSHPVSFDKACEFAGFQCQIQFGPHNEQKHKAGFLDLKDFLPKEYVKQKGERKIFQAHKNCGQMSEIEAKVRYVKLARSLKTYGVSFFLVKEKMKGDNKLVPRLLGITKECVMRVDEKTKEVIQEWSLTNIKRWAASPKSFTLDFGDYQDGYYSVQTTEGEQIAQLIAGYIDIILKKKKSKDHFGLEGDEESTMLEDSVSPKKSTVLQ [chain 1 K322D]
